Experimental data from the nanobody polyreactivity screen of Harvey et al. (2022).

Test: yeast display, Sf9 membrane polyspecificity reagent, FACS + sequencing; frameworks hold sequencing errors
How it was run: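 Polyreactivity labels are assigned by the sorting gate from which each nanobody was recovered. The gates were low and high (top ~1%), set on anti-HA fluorescence for expression and streptavidin fluorescence for reagent binding. Before sorting, galactose-induced (36–48 hours) yeast display cells were stained for 1 hour at 4 °C with 10% biotinylated, detergent-solubilized Sf9 membrane reagent.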

Sequence	polyreactivity (PSR sort gate)
QVQLVESGGGVVQAGGSLRLTCAASGRTFYVYAMGWYRQAPGKEREFVAAITSSGGSTYYADSVKGRFTISRDNAKNTVYLQMNSLNPEDTAVYYSDAEWSTPSYVGFADGFEYWGQGTQVTVSS	low polyreactivity
QVQLVESGGGLVQAGGSLRLSCAASGSTFWFYAMGWYRQSPGKERELVAVISNSGSTYYADSVKGRFTISRDNAKNTVYLQMNSLKPEDTAVYYCNKDGGGDSYWYDYWGQGTQVTVSS	low polyreactivity
QVQLVESGRGLVQAGGSLRLSCAASGFTFYRYAMGWYRQAPGKERELVATISASGGSTYYADSVKGRFTISRDNAKNTVYLQMNSLKPVDTAVFYCARYIYRSAFDYWGQGTQVTVSS	high polyreactivity
QVQLVESGGGLVQAGGSLRLSCAASGRTFVPNALGWYRQAPGKERELVAALSWSGDSTYYADSVKGRFTISRDNAKNTVYLQMNSLKPEDTAVYYCAADPFFGVSIGGLKYHFDYWGQGTQVTVSS	low polyreactivity
QVQLVESGGGLVQAGGSLRLSCAASGRIFYYNAMGWYRQAPGKERELVAAITSGGSTNYADSVKGRFTISPDNAKNTVYLQMNSLKPEDTAVYYCNARRYGSPRSEVHYDYCGQGTQVTVSS	low polyreactivity
QVQLVESGGGLVQAGGSLRLSCAASGSTFAYYTMGWYRQAPGKERELVAAITSAGRTSYADSVKGRFTISRDNAKNTVYLQMKSLKPDDTAVYYCAKGRKPGYYYWGQGTQVTVSS	high polyreactivity
QVQLVESGGGLVQAGGSLRLSCAASGLIFEGYAMGWYRQAPGKERELVAAISSAGSTYYADSVKGRFTISRDNAKNTVYLQMNSLKPEDTAVYYCNARRRRLVSYYYWGQGTQVTVSS	high polyreactivity
QVQLVESGGGLVQAGGSLRLSCAASGRIFDNYAMGWYRQAPGKDREWVAAISSRGRSTYYADSVKGRFTISRDNAKNTVYLQMNSLKPEDTAVYYCAKDLGYRGRYNYWGQGTQVTVSS	low polyreactivity
QVQLVESGGGLVQAGGSLRLSCAASGSIFSWNAMGWYRQAPGKERELVAAITGGGSTYYADSVKGRFTISRDNAKNTFYLQMNSLKPEDTAVYYCNALWYWDKLEYWGQGTQVTVSS	high polyreactivity
QVQLVESGGGLVQAGGSLRLSCAASGLTFSYYAMGWYRQAPGKERELVAGISSSGGTTYYADSVKGRFTISRDNAKNTVYLQMNSLKPEDTAVYYCATRRHYGSFWYDYWGQGTQVTVSS	high polyreactivity
QVHLVESGGGLVQAGGSLRLSCAASGRTFDRYDMGWYRQAPGKEWELVATISSSGGSTYYADSVKGRFTISRDNEKNTVYLQMNSLKPEDTAVYYCAADPSGDYWGQGTQVTVSS	low polyreactivity
QVQLVESGGGLVQAGGSLRLSCAASGSILAYYAMGWYRQAPGKERELVADITSSGGITYYADSVKGRFTISRDNAKNTVYLQMNSLKPEDTAVYYCNADSWAIGGGSYPYDYWGQGTQVTVSS	low polyreactivity
QVQLVESGGGLVQAGGSLRLSCAASGSIFSSYAMGWYRQAPGKERELVAAITSGGSTYYADSVKGRFTISRDNAKNTVYLLMNSLKPEDTAVYYCAARQVRTSILHMGYWGQGTQVTVSS	low polyreactivity
QVQLVESGGGLVQAGGSLRISCAASGSIFVHYAMGWYIPAPGKERELVAAITTSGGSTYYADSVKGRFTISRDNAKNTVYLQMNSLKPEDTAVYYCTARAVRYPFTGNYWGQGTQVTVSS	high polyreactivity
QVQLVESGGGLVQAGGSLRLSCAASGRIFIYYAMGWYRQAPGKERELVAAISWGGGRTYYADSVKGRFTLSRYNAKNTVYLQMNSLKPEDTAVYYCAAGVYTGQNEYDYWGQGTQVTVSS	low polyreactivity
QVQLVESGGGFVQAGVSLRLSCAASGSIYYNAMGWYIQAPGKERELVAGITSSGGSTYYADSVKGRFTISRDNAKNTVYLQMISLKPEDTAVYFCAADFVYLCTLFGAYDYCGQGTQVTVSS	low polyreactivity
QGQLEESGGGLVQAGGSLRLSCAAAGITFVDYSMGWYRQAPGKEMELVAGINWSGDGTSYADSVKGRFTISRDNAKNTVYLLMNSLKPEDTAVYDCAAYWYYYLMDYWGQGTQVTVSS	low polyreactivity
QVQLVESGGGLVQAGGSLRLSCAASGRIFLQYAMGWYRQAPGKERELVAGISLRGGSTYYADSVKGRFTISRDNAKNTVYLQMNSLKPEDTAVYYCAADVIVTVETNTSGPSFTEYDYWGQGTQVTVSS	low polyreactivity
QVQLVESGGGLVQAGGSLRLSCAASGRTFPRNAMGWYRQAPGKERELVAAITTSGGRTYYADSVKGRFTISRDNAKNTVYLQMNSLKPEDTAVYYCAVRYDTLAWYAFYYWGQGTQVTVSS	low polyreactivity
QVQLVESGGGLVQAGGSLRISCAASGSIFTFYAMGRYRQAPGKERELVATITWLGGSTYADSVKGRFTISRDNAKNTVYLQMNSLKPEDTAVYYCAKYLGRQHEKDLGGMNYWGQGTQVTVSS	high polyreactivity
QVQLVESGGGLVQAGGSLRLSCAASGLTFRYNAMGWYRQAPGKERELVARISRNGGRTYYADSVKGRFTISRDNAKNTVYLQMNSLKPEDTAVYYCNVVYFVTTSPGYDYWGQGTQVTVSS	high polyreactivity
QVQLVESGGGLVQAGGSLRLSCAASGSTFYFNAMGWYRQAPGKARELVAAIDWSGGSTYYADSVKGRFTISRDNAKNTVYLQMNSLKPEDTAVYYCAAPYHYYGNTVGYADYDYWGQGTQVTVSS	low polyreactivity

Sequence	polyreactivity (PSR sort gate)
QVQLVESVVGLVQAGGSLRVSCAAYGRTFWYYPMGWYRQAPGKERELVAGITFTGGRTYYADSVKGRFTISRDNAKHTVYLQMNSLKPEDTAVYYCAAAGLVVGRKDRDGYWGLGTQVTVSS	low polyreactivity
QVQLVESGGGLVQAGGSLRLSCAASGRIISRYAMGWYRQAPGKERELVATITWSTTSTYYADSVKGRFTISRDNAKNTVYLQMNSLKPEDTAVYYCAASIIPGFRRDPFGYWGQGTQVTVSS	low polyreactivity
QVQLVESGGGLVQAGGSLRLSCAASGSTFRWYAMGWSRQAPGKERELVAAIRRIGSRTYADSVKGRFTISRDNAKNTVYLQMNSLKPEDTAVYYCATRYKYTGYDYWGQGTQVTVSS	high polyreactivity
QVQLVESGGGLDQAGGSLRLSCAASGSNLVSNDMGWYRQAPGKERELVAAMSWSGGSTYYADSVKGRFTISRDNAKNTVYLHMNSLKPEDTAVYYCAAGFGFLFARQELEFDYWGQGTQVTVSS	low polyreactivity
QVQLVESGGGLVQAGGSLRLSCAASVLIFHTYGMGWYRQAPGKERELVADITDGGSTYYADSVKGRFTISRDNAKNTVYLQMNSLKPEDTAVYYCAADERGVFLTYWYFWYDYWGQGTQETVSS	low polyreactivity
QVQLVESGGGLVQAGGSLRLSCAASGSTFFIYAMGWYRQAPGKERELVAAISWRDGSTYYADSVKGRFTISRDNAKNTVYLQMNSLKPEDTAVYYCAADYLLPWGIELDYWGQGTQVTVSS	high polyreactivity
QDQLVESGGGLVQAGGSLRLSCAASGFIFGRYTMGWYRQAPGQDRELVAAISSRGGSTYDADSGKGRFTISRDNAKNTVYLQMNSLKPEDTAVYYCNALRRPSTEGRDYWGQGTQVTVSS	high polyreactivity
QVQLVESGGGLFQAGGSLRLSCSASGNTFVPYDMGWYRQAPGKERELVAGITSGGSTYYADSVKGRFTISRDNAKNTVYLQMNSLKPEDTAVYYCAADYYLWVYWYDYWGEGTQVTVSS	high polyreactivity
QVQLVESGGGLVQAGGSLRLSCAASGFIFGYNAMGWYRQAPGKERELVAAITRGGITYYADSVKGRFTISRDNAKYTVYLQMNSLKPEDTAVYYCASDWSVVYTDYDSWGHGTQVTVSS	low polyreactivity
QVQLVESGGGIVQAGGSLRISCAASRRTYFFNDMGWYRQAPGKERELVAAIGWSTVTTYYADSVKGRFTISRDNAKYTVYFQMISLKPEDTAVYYCAADADGWYSPYDYWGQGSQVTVSS	high polyreactivity
QVQLVESGGGLVQAGGSLRLSCAASGRIIYTNALGWYRQAPGKERELVAAINRSGGITYYADSVKGRFTISRDNAKNTVYLQMNSLKPEDTAVYYCAKDYSWASYNHDYWGQGTQVTVSS	low polyreactivity
QVQLVESGGGLVQAGGSLRLSCAASGRTFGYYAMGWYRQAPGKEREFVAAISFRTTSTYYADSVKGRFTISRDNAKNTVYLQMNSLKPEDTAVYYCNADWYLLSTWYDYWGQGTQVTVSS	high polyreactivity
QVQLVESGGGLDQAGGSLRLSCAASGRTFEYNAMGLYRQAPGKERELVATIRYSGTSTYADSVKGRFTISRDNAKNTAYLQMNSLKPEDTAVYYCNKLGYYYDRRYDYWGQGTQVTVSS	high polyreactivity
QVQLVESGGGSVQAGGRLRLSCAASGSIFGQYAMGWYRQAPGKERELVAAISDTDSTNYADSVKGRFTISRDNAKNTVYLQMNSLKPEDTAVYYCNADTWGYRLGYYYYKFDYWGQGTQVTVSS	low polyreactivity
QVQLVESGGGLVQAGGSLRLSCAASGFTFHSYAMGWYRQAPGKERELVAAISRGGGSTYYADSVKGRFTISRDNAKYTVYLQMNSLKPEDTAVYYCAARGQGGYRVGYYYWGQGTQVTVSS	high polyreactivity
QVQLVESAGGLVQAGGSLSIICAASGFTFSPYTMGWYRKAPGKERELVAAINRRGVSTYYADSVKGRFTISRDNEKNTVYLQMNSLKPEDTAVYYCAAEWYYQYSIYRYGYWGQGTQVTVSS	low polyreactivity
QVQLVESGGGLVQAGGSLRLSCAASGRTFVRNAMGWYRQAPGKERELVAAISKSGGITYYADSVKGRFTISRDTAKNTVYLQMNSLKPEDTAVYYCAKRTSYYRSGWSHYGYWGQGTQVTVSS	high polyreactivity
QVQLVESAGGLVQAGGSLRLSCHASGLTVRTYDMGWYRQEPGKERELVAAITTGGSTYYADSVKGRFSISRDNAKNTVYLQMNSLKPEDTAVYYCAADFIRYINRLLYDFWGQGTQVTVSS	low polyreactivity
QVQLVESGGGLVQAGGSLRLSCAASGFIFGYYTMGWYRQAPGKERELVAAISSRGGSTYYAYSVKGRFTISRDNAKNTVYLQINSLKPEDTAVYYCAKRSTYTGSWWERGYCGQGTQVTVSS	high polyreactivity
QVQLVESGGGLVQAGGSLRLSCAASGFTFGWYAMGWYRQAPGKERELVASISWSGSTTYYADSVKGRFTISRDNAKNTVYLQMNSLKPEDTAVYYCNARRSYVRNDFDYWGQGTQVTVSS	high polyreactivity
QVQLQESGGGLVQAGGSLRLSCAASGTIFRFRYMGWHRQAPGKERELVAGINGGTTTYYADSVIGRFTISRDNAKNTVYLQMNSLKPEDTAVYYCAADVNYYQHRLYYWGQGTQVTVSS	low polyreactivity
